# Data as given in paper PMC9113893, “Carbon Material Hybrid Construction on an Aptasensor for Monitoring Surgical Tumors”.
# Biological target: carcinoembryonic antigen (CEA) (human, UniProt P06731 35-685)
# Assay: electrochemical aptasensor (interdigitated electrode, sandwich); immobilized aptamer; 0.5-1000 ng/mL CEA in PBS, or spiked in 1:100 human serum; LOD 0.5 ng/mL (not a Kd); PBS or 1:100 diluted human serum; graphene-modified IDE blocked with 1% BSA; pH, salt and temperature not stated
# Details: protein: commercial
# Chain of carcinoembryonic antigen (CEA) (P06731 35-685): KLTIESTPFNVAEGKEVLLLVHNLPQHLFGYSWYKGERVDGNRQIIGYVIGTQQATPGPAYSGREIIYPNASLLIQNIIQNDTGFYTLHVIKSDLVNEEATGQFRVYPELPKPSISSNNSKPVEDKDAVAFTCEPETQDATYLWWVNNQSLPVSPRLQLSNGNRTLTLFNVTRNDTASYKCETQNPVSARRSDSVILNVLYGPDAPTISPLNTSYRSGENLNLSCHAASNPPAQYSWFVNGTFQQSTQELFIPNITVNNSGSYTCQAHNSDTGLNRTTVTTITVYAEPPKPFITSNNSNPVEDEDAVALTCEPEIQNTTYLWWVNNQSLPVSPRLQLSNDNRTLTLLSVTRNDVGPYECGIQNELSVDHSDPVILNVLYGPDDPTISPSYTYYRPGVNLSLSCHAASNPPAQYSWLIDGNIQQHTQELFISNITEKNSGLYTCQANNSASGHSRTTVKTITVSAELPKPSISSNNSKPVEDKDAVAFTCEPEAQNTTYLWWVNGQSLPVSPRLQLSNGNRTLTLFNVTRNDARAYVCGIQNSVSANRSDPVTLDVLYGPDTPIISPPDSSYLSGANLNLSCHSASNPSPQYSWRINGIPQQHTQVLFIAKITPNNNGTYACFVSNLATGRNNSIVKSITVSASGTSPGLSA
binder,measurement,value
"TATCCAGCTTATTCAATT (ssDNA, 3'-NH2) [anti-CEA capture aptamer]",binding result,binds
